{
  "source": "paper PMC10659578",
  "about": "“Mechanism of stepwise electron transfer in six-transmembrane epithelial antigen of the prostate (STEAP) 1 and 2” (eLife, 2023)",
  "test_system": "T1, Cc1cc2c(cc1C)N(C[C@H](O)[C@H](O)[C@H](O)COP(=O)(O)OP(=O)(O)OC[C@H]1O[C@@H](n3cnc4c(N)ncnc43)[C@H](O)[C@@H]1O)c1[nH]c(=O)[nH]c(=O)c1N2",
  "T1 construct": "full-length, expressed and purified as in Kim et al. 2016; detergent-solubilised",
  "experiment": "rapid-scan stopped-flow heme reduction (A427), kobs vs [FADH-]",
  "type": "biochemical, Oryctolagus cuniculus",
  "settings": "fast phase, single-turnover heme reduction, anaerobic, 20 mM HEPES pH 7.5, 150 mM NaCl, 0.1% LMNG",
  "data": [
    {"substance": "STEAP1 (Oryctolagus cuniculus)", "values": [
      {"measurement": "Km", "setting": "60% of change", "value": 4.7, "unit": "µM"}
    ]},
    {"substance": "STEAP1 (Oryctolagus cuniculus; L230G)", "values": [
      {"measurement": "Km", "setting": "79% of change", "value": 3.6, "unit": "µM"}
    ]}
  ]
}
